Experimental findings from PMC5499577 (Nucleic Acids Research, 2017) are described below.

Usually Kd stands for the free concentration of one partner at which half of the binding sites on the other are occupied at equilibrium, for simple one-to-one binding. The low end stands for a tighter complex, the high end for a looser complex. The term stoichiometry N denotes the number of molecules, sites or subunits per partner or assembly.

Like-named read-outs stand apart in the source and are kept apart here.

Data set [1] concerns the molecule itself. As to the kind of experiment: AUC.
Data set [2] concerns the molecule itself. Put plainly: AUC. This is another data set of the same source.
Data set [3] concerns the molecule itself. Put plainly: crystal structure.

B1: His6Flag-Smt3-CC-I fusion of the LI Int coiled-coil domain (345-405) (domain or fragment, Listeria innocua (prophage), UniProt Q928V6 345-405, looked up)
chain: EDELDSLNEKLKIEHAKKKRLFDLYINGSYEVSELDSMMNDIDAQINYYEAQIEANEELKK
With B1, in data set [1], the dissociation constant (Kd) came to 20.1 µM and the “stoichiometry N” value amounted to 2.

B2: Listeria innocua integrase (LI Int), wild type, full length (enzyme, Listeria innocua (prophage), UniProt Q928V6 1-452, looked up)
chain: MKAAIYIRVSTQEQVENYSIQAQTEKLTALCRSKDWDVYDTFIDGGYSGSNMNRPALNEMLSKLHEIDAVVVYRLDRLSRSQKDTITLIEEYFLKNNVEFVSLSETLDTSSPFGRAMIGILSVFAQLERETIRDRMVMGKIKRIEAGLPLTTAKGRTFGYDVIDTKLYINEEEAKQLRLIYDIFEEEQSITFLQKRLKKLGFKVRTYNRYNNWLTNDLYCGYVSYKDKVHVKGIHEPIISEEQFYRVQEIFSRMGKNPNMNKESASLLNNLVVCSKCGLGFVHRRKDTVSRGKKYHYRYYSCKTYKHTHELEKCGNKIWRADKLEELIIDRVNNYSFASRNIDKEDELDSLNEKLKIEHAKKKRLFDLYINGSYEVSELDSMMNDIDAQINYYEAQIEANEELKKNKKIQENLADLATVDFNSLEFREKQLYLKSLINKIYIDGEQVTIEWL
As for B2, in data set [2], the dissociation constant Kd is no more than 0.032 µM and the “stoichiometry N” value is 2.

B3: LI Int with the coiled-coil motif deleted, IntΔCC (Δ342-416) (enzyme, Listeria innocua (prophage), UniProt Q928V6 1-452, looked up)
chain: MKAAIYIRVSTQEQVENYSIQAQTEKLTALCRSKDWDVYDTFIDGGYSGSNMNRPALNEMLSKLHEIDAVVVYRLDRLSRSQKDTITLIEEYFLKNNVEFVSLSETLDTSSPFGRAMIGILSVFAQLERETIRDRMVMGKIKRIEAGLPLTTAKGRTFGYDVIDTKLYINEEEAKQLRLIYDIFEEEQSITFLQKRLKKLGFKVRTYNRYNNWLTNDLYCGYVSYKDKVHVKGIHEPIISEEQFYRVQEIFSRMGKNPNMNKESASLLNNLVVCSKCGLGFVHRRKDTVSRGKKYHYRYYSCKTYKHTHELEKCGNKIWRADKLEELIIDRVNNYSFASRNATVDFNSLEFREKQLYLKSLINKIYIDGEQVTIEWL
Turning to B3, in data set [2], the Kd turned out to be 5.7 µM and the “stoichiometry N” value worked out at 2.

B4: LI Int isolated coiled-coil domain CC-III (349-400) (domain or fragment, Listeria innocua (prophage), UniProt Q928V6 349-400, looked up)
chain: DSLNEKLKIEHAKKKRLFDLYINGSYEVSELDSMMNDIDAQINYYEAQIEAN
On to B4, for which, in data set [3], the binding result is given as “binds”.

B5: LI Int CTD Y369A (133-452) (domain or fragment, Listeria innocua (prophage), UniProt Q928V6 133-452, looked up)
chain: RDRMVMGKIKRIEAGLPLTTAKGRTFGYDVIDTKLYINEEEAKQLRLIYDIFEEEQSITFLQKRLKKLGFKVRTYNRYNNWLTNDLYCGYVSYKDKVHVKGIHEPIISEEQFYRVQEIFSRMGKNPNMNKESASLLNNLVVCSKCGLGFVHRRKDTVSRGKKYHYRYYSCKTYKHTHELEKCGNKIWRADKLEELIIDRVNNYSFASRNIDKEDELDSLNEKLKIEHAKKKRLFDLAINGSYEVSELDSMMNDIDAQINYYEAQIEANEELKKNKKIQENLADLATVDFNSLEFREKQLYLKSLINKIYIDGEQVTIEWL
B5: in data set [2], the Kd was 289 µM and the “stoichiometry N” value came out at 2.

B6: LI Int CTD K362A (133-452) (domain or fragment, Listeria innocua (prophage), UniProt Q928V6 133-452, looked up)
chain: RDRMVMGKIKRIEAGLPLTTAKGRTFGYDVIDTKLYINEEEAKQLRLIYDIFEEEQSITFLQKRLKKLGFKVRTYNRYNNWLTNDLYCGYVSYKDKVHVKGIHEPIISEEQFYRVQEIFSRMGKNPNMNKESASLLNNLVVCSKCGLGFVHRRKDTVSRGKKYHYRYYSCKTYKHTHELEKCGNKIWRADKLEELIIDRVNNYSFASRNIDKEDELDSLNEKLKIEHAKAKRLFDLYINGSYEVSELDSMMNDIDAQINYYEAQIEANEELKKNKKIQENLADLATVDFNSLEFREKQLYLKSLINKIYIDGEQVTIEWL
As for B6, in data set [2], binding was put at a Kd of 45.2 µM and the “stoichiometry N” value came out at 2.

B7: LI Int carboxy-terminal domain, CTD (133-452) (domain or fragment, Listeria innocua (prophage), UniProt Q928V6 133-452, looked up)
chain: RDRMVMGKIKRIEAGLPLTTAKGRTFGYDVIDTKLYINEEEAKQLRLIYDIFEEEQSITFLQKRLKKLGFKVRTYNRYNNWLTNDLYCGYVSYKDKVHVKGIHEPIISEEQFYRVQEIFSRMGKNPNMNKESASLLNNLVVCSKCGLGFVHRRKDTVSRGKKYHYRYYSCKTYKHTHELEKCGNKIWRADKLEELIIDRVNNYSFASRNIDKEDELDSLNEKLKIEHAKKKRLFDLYINGSYEVSELDSMMNDIDAQINYYEAQIEANEELKKNKKIQENLADLATVDFNSLEFREKQLYLKSLINKIYIDGEQVTIEWL
Regarding B7, in data set [2], the affinity, expressed as Kd, was 18.8 µM and the “stoichiometry N” value amounted to 2.
On to SLNEKLKIEHAKKKRLFDLYINGSYEVSELDSMMNDIDAQINYYEAQIEA (domain or fragment, Listeria innocua (prophage), UniProt Q928V6 350-399, looked up) [LI Int isolated coiled-coil domain CC-II (350-399)], for which, in data set [3], the binding result is listed as “binds”.
